In publication PMC9482650, “Quantitative fragmentomics allow affinity mapping of interactomes” (Nature Communications, 2022):
Residue numbers refer to the chain shown, from its start.

Target: T1, APBA2_2, Q99767
T1 sequence (Q99767 654-744, limits assumed, looked up): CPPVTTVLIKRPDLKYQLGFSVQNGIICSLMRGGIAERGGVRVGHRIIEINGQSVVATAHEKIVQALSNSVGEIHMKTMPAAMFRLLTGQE
Experiment: holdup assay
Parameters: key: below the threshold = too weak to quantify, mostly under pKd 3.1 to 4
Conditions: plain residues with an end cap or a label only (N-terminal biotin on a linker: ado-ado)

Row | Binder | pKd
1 | PAPSSGKDYV [CLDN1, O95832] | below the threshold
2 | EVEEFPETSV [TRPV3, Q8NET8] | below the threshold

Target: T2, ARHGAP21, Q5T5U3
T2 sequence (Q5T5U3 45-169, limits assumed, looked up): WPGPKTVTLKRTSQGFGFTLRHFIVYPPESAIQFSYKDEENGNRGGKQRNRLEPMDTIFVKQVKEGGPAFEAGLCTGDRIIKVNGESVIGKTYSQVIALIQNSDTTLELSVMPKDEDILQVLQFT
Experiment: holdup assay
Parameters: key: below the threshold = too weak to quantify, mostly under pKd 3.1 to 4
Conditions: plain residues with an end cap or a label only (N-terminal biotin on a linker: ado-ado)

Row | Binder | pKd
3 | PAPSSGKDYV [CLDN1, O95832] | below the threshold
4 | EVEEFPETSV [TRPV3, Q8NET8] | 4.15

Target: DLG1_2, Q12959
Sequence (Q12959 314-412): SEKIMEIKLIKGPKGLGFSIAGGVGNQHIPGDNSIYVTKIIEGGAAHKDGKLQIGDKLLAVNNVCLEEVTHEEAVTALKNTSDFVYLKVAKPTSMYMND
Experiment: holdup assay
Parameters: key: below the threshold = too weak to quantify, mostly under pKd 3.1 to 4
Conditions: plain residues with an end cap or a label only (N-terminal biotin on a linker: ado-ado)

Row | Binder | pKd
5 | PAPSSGKDYV [CLDN1, O95832] | below the threshold
6 | EVEEFPETSV [TRPV3, Q8NET8] | 4.51

Target: DLG1_3, Q12959
Sequence (Q12959 457-571): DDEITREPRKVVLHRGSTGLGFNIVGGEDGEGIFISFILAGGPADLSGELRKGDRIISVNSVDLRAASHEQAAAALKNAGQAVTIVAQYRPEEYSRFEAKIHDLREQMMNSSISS
Experiment: holdup assay
Parameters: key: below the threshold = too weak to quantify, mostly under pKd 3.1 to 4
Conditions: plain residues with an end cap or a label only (N-terminal biotin on a linker: ado-ado)

Row | Binder | pKd
7 | PAPSSGKDYV [CLDN1, O95832] | below the threshold
8 | EVEEFPETSV [TRPV3, Q8NET8] | 4.64

Target: DLG4_3, P78352
Sequence (P78352 306-403): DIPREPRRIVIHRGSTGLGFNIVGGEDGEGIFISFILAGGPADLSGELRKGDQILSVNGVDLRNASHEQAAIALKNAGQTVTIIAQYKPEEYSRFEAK
Experiment: holdup assay
Parameters: key: below the threshold = too weak to quantify, mostly under pKd 3.1 to 4
Conditions: plain residues with an end cap or a label only (N-terminal biotin on a linker: ado-ado)

Row | Binder | pKd
9 | PAPSSGKDYV [CLDN1, O95832] | below the threshold
10 | EVEEFPETSV [TRPV3, Q8NET8] | 4.2

Target: FRMPD2_1, Q68DX3
Sequence (Q68DX3 770-861): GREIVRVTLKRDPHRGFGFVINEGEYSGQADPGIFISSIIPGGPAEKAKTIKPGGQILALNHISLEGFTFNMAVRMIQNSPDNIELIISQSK
Experiment: holdup assay
Parameters: key: below the threshold = too weak to quantify, mostly under pKd 3.1 to 4
Conditions: plain residues with an end cap or a label only (N-terminal biotin on a linker: ado-ado)

Row | Binder | pKd
11 | PAPSSGKDYV [CLDN1, O95832] | below the threshold
12 | EVEEFPETSV [TRPV3, Q8NET8] | 3.59

Target: T3, GRIP1_4, Q9Y3R0
T3 sequence (Q9Y3R0 467-571, limits assumed, looked up): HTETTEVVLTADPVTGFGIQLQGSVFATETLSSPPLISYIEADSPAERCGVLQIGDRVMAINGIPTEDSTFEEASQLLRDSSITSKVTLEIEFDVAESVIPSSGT
Experiment: holdup assay
Parameters: key: below the threshold = too weak to quantify, mostly under pKd 3.1 to 4
Conditions: plain residues with an end cap or a label only (N-terminal biotin on a linker: ado-ado)

Row | Binder | pKd
13 | PAPSSGKDYV [CLDN1, O95832] | below the threshold
14 | EVEEFPETSV [TRPV3, Q8NET8] | 3.47

Target: T4, HTRA4, P83105
T4 sequence (P83105 378-476, limits assumed, looked up): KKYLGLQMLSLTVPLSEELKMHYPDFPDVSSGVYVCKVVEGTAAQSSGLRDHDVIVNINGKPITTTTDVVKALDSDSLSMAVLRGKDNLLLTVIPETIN
Experiment: holdup assay
Parameters: key: below the threshold = too weak to quantify, mostly under pKd 3.1 to 4
Conditions: plain residues with an end cap or a label only (N-terminal biotin on a linker: ado-ado)

Row | Binder | pKd
15 | PAPSSGKDYV [CLDN1, O95832] | below the threshold
16 | EVEEFPETSV [TRPV3, Q8NET8] | below the threshold

Target: IL16_4, Q14005
Sequence (Q14005 1229-1329): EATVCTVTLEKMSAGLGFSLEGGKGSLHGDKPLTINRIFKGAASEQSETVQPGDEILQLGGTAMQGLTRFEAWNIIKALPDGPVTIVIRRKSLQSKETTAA
Experiment: holdup assay
Parameters: key: below the threshold = too weak to quantify, mostly under pKd 3.1 to 4
Conditions: plain residues with an end cap or a label only (N-terminal biotin on a linker: ado-ado)

Row | Binder | pKd
17 | PAPSSGKDYV [CLDN1, O95832] | below the threshold
18 | EVEEFPETSV [TRPV3, Q8NET8] | below the threshold

Target: Inadl_3, Q8NI35
Sequence (Q8NI35 359-469): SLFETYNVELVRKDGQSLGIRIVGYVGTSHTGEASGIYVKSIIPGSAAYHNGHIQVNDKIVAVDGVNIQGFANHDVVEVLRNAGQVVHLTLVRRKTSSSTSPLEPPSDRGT
Experiment: holdup assay
Parameters: key: below the threshold = too weak to quantify, mostly under pKd 3.1 to 4
Conditions: plain residues with an end cap or a label only (N-terminal biotin on a linker: ado-ado)

Row | Binder | pKd
19 | PAPSSGKDYV [CLDN1, O95832] | below the threshold
20 | EVEEFPETSV [TRPV3, Q8NET8] | 3.72

Target: Inadl_6, Q8NI35
Sequence (Q8NI35 1058-1167): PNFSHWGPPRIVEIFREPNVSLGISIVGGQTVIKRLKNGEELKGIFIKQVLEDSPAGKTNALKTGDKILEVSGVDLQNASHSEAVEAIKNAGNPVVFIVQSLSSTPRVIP
Experiment: holdup assay
Parameters: key: below the threshold = too weak to quantify, mostly under pKd 3.1 to 4
Conditions: plain residues with an end cap or a label only (N-terminal biotin on a linker: ado-ado)

Row | Binder | pKd
21 | PAPSSGKDYV [CLDN1, O95832] | below the threshold
22 | EVEEFPETSV [TRPV3, Q8NET8] | 4.18

Target: LAP2, Q96RT1
Sequence (Q96RT1 other isoform, or with tags, fused parts or gaps): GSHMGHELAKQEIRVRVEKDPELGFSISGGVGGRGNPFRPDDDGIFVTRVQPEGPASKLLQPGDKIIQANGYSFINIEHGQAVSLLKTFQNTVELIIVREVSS
Experiment: holdup assay
Parameters: key: below the threshold = too weak to quantify, mostly under pKd 3.1 to 4
Conditions: plain residues with an end cap or a label only (N-terminal biotin on a linker: ado-ado)

Row | Binder | pKd
23 | PAPSSGKDYV [CLDN1, O95832] | below the threshold
24 | EVEEFPETSV [TRPV3, Q8NET8] | 4.93

Target: T5, LIN7B, Q9HAP6
T5 sequence (Q9HAP6 88-185, limits assumed, looked up): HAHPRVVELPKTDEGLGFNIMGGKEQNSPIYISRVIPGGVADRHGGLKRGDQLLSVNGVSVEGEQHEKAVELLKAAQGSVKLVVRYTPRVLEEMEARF
Experiment: holdup assay
Parameters: key: below the threshold = too weak to quantify, mostly under pKd 3.1 to 4
Conditions: plain residues with an end cap or a label only (N-terminal biotin on a linker: ado-ado)

Row | Binder | pKd
25 | PAPSSGKDYV [CLDN1, O95832] | below the threshold
26 | EVEEFPETSV [TRPV3, Q8NET8] | 4.3

Target: T6, LIN7C, Q9NUP9
T6 sequence (Q9NUP9 88-185, limits assumed, looked up): T5 sequence (Q9HAP6 88-185, limits assumed, looked up) with A2S, D13E, V35I, V40I, Q65H, S79K, R89K, A96S
Experiment: holdup assay
Parameters: key: below the threshold = too weak to quantify, mostly under pKd 3.1 to 4
Conditions: plain residues with an end cap or a label only (N-terminal biotin on a linker: ado-ado)

Row | Binder | pKd
27 | PAPSSGKDYV [CLDN1, O95832] | below the threshold
28 | EVEEFPETSV [TRPV3, Q8NET8] | 4.51

Target: LNX1_2, Q8TBB1
Sequence (Q8TBB1 371-470): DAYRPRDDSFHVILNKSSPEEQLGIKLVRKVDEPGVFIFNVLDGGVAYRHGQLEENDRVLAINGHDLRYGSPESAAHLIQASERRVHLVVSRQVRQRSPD
Experiment: holdup assay
Parameters: key: below the threshold = too weak to quantify, mostly under pKd 3.1 to 4
Conditions: plain residues with an end cap or a label only (N-terminal biotin on a linker: ado-ado)

Row | Binder | pKd
29 | PAPSSGKDYV [CLDN1, O95832] | below the threshold
30 | EVEEFPETSV [TRPV3, Q8NET8] | 3.59

Target: LNX1_3, Q8TBB1
Sequence (Q8TBB1 500-596): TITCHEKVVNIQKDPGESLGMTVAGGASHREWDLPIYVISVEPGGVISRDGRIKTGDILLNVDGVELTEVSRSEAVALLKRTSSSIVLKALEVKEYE
Experiment: holdup assay
Parameters: key: below the threshold = too weak to quantify, mostly under pKd 3.1 to 4
Conditions: plain residues with an end cap or a label only (N-terminal biotin on a linker: ado-ado)

Row | Binder | pKd
31 | PAPSSGKDYV [CLDN1, O95832] | below the threshold
32 | EVEEFPETSV [TRPV3, Q8NET8] | below the threshold

Target: T7, LNX2_3, Q8N448
T7 sequence (Q8N448 463-564, limits assumed, looked up): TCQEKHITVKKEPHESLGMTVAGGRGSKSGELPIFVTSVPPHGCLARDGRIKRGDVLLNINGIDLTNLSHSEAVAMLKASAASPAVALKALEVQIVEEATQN
Experiment: holdup assay
Parameters: key: below the threshold = too weak to quantify, mostly under pKd 3.1 to 4
Conditions: plain residues with an end cap or a label only (N-terminal biotin on a linker: ado-ado)

Row | Binder | pKd
33 | PAPSSGKDYV [CLDN1, O95832] | below the threshold
34 | EVEEFPETSV [TRPV3, Q8NET8] | 3.62

Target: MAGI2_4, Q86UL8
Sequence (Q86UL8 772-865): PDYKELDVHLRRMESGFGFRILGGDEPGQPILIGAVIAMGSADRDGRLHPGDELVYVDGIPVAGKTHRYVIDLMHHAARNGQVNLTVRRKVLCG
Experiment: holdup assay
Parameters: key: below the threshold = too weak to quantify, mostly under pKd 3.1 to 4
Conditions: plain residues with an end cap or a label only (N-terminal biotin on a linker: ado-ado)

Row | Binder | pKd
35 | PAPSSGKDYV [CLDN1, O95832] | 3.54
36 | EVEEFPETSV [TRPV3, Q8NET8] | 3.68

Target: T8, NHERF3_4, Q5T2W1
T8 sequence (Q5T2W1 373-468, limits assumed, looked up): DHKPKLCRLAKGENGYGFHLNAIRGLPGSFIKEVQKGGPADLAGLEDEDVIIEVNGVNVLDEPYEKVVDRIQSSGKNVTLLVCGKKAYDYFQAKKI
Experiment: holdup assay
Parameters: key: below the threshold = too weak to quantify, mostly under pKd 3.1 to 4
Conditions: plain residues with an end cap or a label only (N-terminal biotin on a linker: ado-ado)

Row | Binder | pKd
37 | PAPSSGKDYV [CLDN1, O95832] | below the threshold
38 | EVEEFPETSV [TRPV3, Q8NET8] | below the threshold

Target: T9, PDZD2_2, O15018
T9 sequence (O15018 329-429, limits assumed, looked up): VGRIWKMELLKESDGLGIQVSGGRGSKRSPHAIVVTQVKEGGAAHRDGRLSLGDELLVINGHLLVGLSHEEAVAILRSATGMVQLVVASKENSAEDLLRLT
Experiment: holdup assay
Parameters: key: below the threshold = too weak to quantify, mostly under pKd 3.1 to 4
Conditions: plain residues with an end cap or a label only (N-terminal biotin on a linker: ado-ado)

Row | Binder | pKd
39 | PAPSSGKDYV [CLDN1, O95832] | 4.59
40 | EVEEFPETSV [TRPV3, Q8NET8] | 4.99

Target: T10, PDZRN3_1, Q9UPQ7
T10 sequence (Q9UPQ7 244-349, limits assumed, looked up): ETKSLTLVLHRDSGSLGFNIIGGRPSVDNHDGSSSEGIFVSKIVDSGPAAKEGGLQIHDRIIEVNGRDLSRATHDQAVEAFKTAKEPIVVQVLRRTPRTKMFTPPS
Experiment: holdup assay
Parameters: key: below the threshold = too weak to quantify, mostly under pKd 3.1 to 4
Conditions: plain residues with an end cap or a label only (N-terminal biotin on a linker: ado-ado)

Row | Binder | pKd
41 | PAPSSGKDYV [CLDN1, O95832] | below the threshold
42 | EVEEFPETSV [TRPV3, Q8NET8] | 4.91

Target: SCRIB_2, Q14160
Sequence (Q14160 857-960): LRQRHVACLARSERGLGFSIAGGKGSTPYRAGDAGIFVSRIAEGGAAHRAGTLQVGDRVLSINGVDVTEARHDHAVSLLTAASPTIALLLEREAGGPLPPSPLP
Experiment: holdup assay
Parameters: key: below the threshold = too weak to quantify, mostly under pKd 3.1 to 4
Conditions: plain residues with an end cap or a label only (N-terminal biotin on a linker: ado-ado)

Row | Binder | pKd
43 | PAPSSGKDYV [CLDN1, O95832] | below the threshold
44 | EVEEFPETSV [TRPV3, Q8NET8] | 4.94

Target: T11, SNTB1, Q13884
T11 sequence (Q13884 107-205, limits assumed, looked up): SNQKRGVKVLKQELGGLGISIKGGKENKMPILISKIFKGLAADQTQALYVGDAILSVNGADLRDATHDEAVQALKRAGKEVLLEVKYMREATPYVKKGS
Experiment: holdup assay
Parameters: key: below the threshold = too weak to quantify, mostly under pKd 3.1 to 4
Conditions: plain residues with an end cap or a label only (N-terminal biotin on a linker: ado-ado)

Row | Binder | pKd
45 | PAPSSGKDYV [CLDN1, O95832] | below the threshold
46 | EVEEFPETSV [TRPV3, Q8NET8] | 5.23

Target: T12, SNTG2, Q9NY99
T12 sequence (Q9NY99 68-166, limits assumed, looked up): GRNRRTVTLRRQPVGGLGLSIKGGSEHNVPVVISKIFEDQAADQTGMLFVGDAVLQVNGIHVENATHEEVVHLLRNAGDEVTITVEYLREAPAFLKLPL
Experiment: holdup assay
Parameters: key: below the threshold = too weak to quantify, mostly under pKd 3.1 to 4
Conditions: plain residues with an end cap or a label only (N-terminal biotin on a linker: ado-ado)

Row | Binder | pKd
47 | PAPSSGKDYV [CLDN1, O95832] | below the threshold
48 | EVEEFPETSV [TRPV3, Q8NET8] | 5.05

Target: TJP1_3, Q07157
Sequence (Q07157 416-512): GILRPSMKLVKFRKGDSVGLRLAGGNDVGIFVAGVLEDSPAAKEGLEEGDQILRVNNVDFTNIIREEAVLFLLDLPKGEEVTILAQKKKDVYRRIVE
Experiment: holdup assay
Parameters: key: below the threshold = too weak to quantify, mostly under pKd 3.1 to 4
Conditions: plain residues with an end cap or a label only (N-terminal biotin on a linker: ado-ado)

Row | Binder | pKd
49 | PAPSSGKDYV [CLDN1, O95832] | below the threshold
50 | EVEEFPETSV [TRPV3, Q8NET8] | 3.5
